Earlier results in publication PMC9900175.

Molecular target: CD200R (Homo sapiens) (UniProt Q8TD46)
Sequence of UniProt Q8TD46 (Q8TD46 25-265): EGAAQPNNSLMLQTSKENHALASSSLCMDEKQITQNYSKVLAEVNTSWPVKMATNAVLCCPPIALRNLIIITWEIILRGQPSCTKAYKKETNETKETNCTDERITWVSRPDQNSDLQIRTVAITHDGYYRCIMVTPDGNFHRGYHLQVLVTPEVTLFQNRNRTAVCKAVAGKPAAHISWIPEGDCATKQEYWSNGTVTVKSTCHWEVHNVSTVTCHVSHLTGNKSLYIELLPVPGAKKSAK

## CD200 (from UniProt P41217)
  Kd: 500 nM
